Results as given in PMC8639918 (2021).

Target: PHR2^(230–426 L348A/L358A/I362A) (rice, UniProt Q6Z156 230-426, L348A | L358A | I362A)
Assay: ITC; with InsP6

Kd: 140 nM
B1: SPX1^1–259 (C-terminally truncated fragment of rice SPX1) (domain or fragment)
chain: MKFGKSLSSQIVETLPEWRDKFLSYKDLKKRLKLIGGGGGGEERQAKRARVAADGGEEEAAAAAMTPEEAGFMRLLEAELDKFNSFFVEKEEEYIIRQKELQDRVARAAGRESKEELMRVRKEIVDFHGEMVLLENYSALNYTGLVKILKKYDKRTGALIRLPFIQKVLQQPFFTTDLLYKLVKQCEAMLDQLLPSNELSVSSEDGRGDSTNEDKPSNPSSSLVNGGTIPELDEIEYMESMYMKGTVAALRSLKEIRSG
